This is an account of results in patent publication US20250026827A1 (Alector, published 2025).

Positions count from the first letter of the chain named. Like-named read-outs stand apart in the source and are kept apart here.

The target in assay [1] is T1, human SIRPα on cells (human, UniProt P78324 31-504).
T1 construct: Whole entry
Description: flow cytometry. (In general: In flow cytometry, cells or beads pass a laser one at a time.)

Assay [2] addresses T2, mouse SIRPβ1 on CHO cells (mouse).
T2 construct: Whole entry
T2 chain: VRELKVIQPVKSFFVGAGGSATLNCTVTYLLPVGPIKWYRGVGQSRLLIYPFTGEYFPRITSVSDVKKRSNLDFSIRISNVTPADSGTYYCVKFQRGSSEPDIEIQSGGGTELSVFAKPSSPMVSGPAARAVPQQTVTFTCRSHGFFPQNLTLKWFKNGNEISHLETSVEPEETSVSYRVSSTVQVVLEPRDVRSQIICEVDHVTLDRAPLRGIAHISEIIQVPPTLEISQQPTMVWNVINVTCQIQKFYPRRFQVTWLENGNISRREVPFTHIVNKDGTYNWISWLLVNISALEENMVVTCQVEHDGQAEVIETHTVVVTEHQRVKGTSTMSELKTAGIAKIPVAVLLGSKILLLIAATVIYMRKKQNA
The experiment in a line: flow cytometry.

Assay [3] concerns the target T3, human SIRPα domain 1 (D1) Fc fusion (human, UniProt P78324 32-149).
T3 construct: also called human SIRPα D1-Fc; Human SIRPα Fc; not shown: C-terminal human IgG1 Fc
The experiment in a line: Octet, IgG avid. For orientation: BLI is a label-free optical method that tracks binding on a fibre tip over time.

The target of assay [4] is T4, human SIRPβ1 isoform 1 on cells (human, UniProt O00241 30-398).
T4 construct: On CHO cells (low level), on BWZ/BW5147.G.1.4 cells (reporter cells co-express human DAP12) or on primary human myeloid cells; also called huSIRPβ1; BWZ-huSIRPβ1
Description: flow cytometry.
Description: (§1) Cells were then washed twice and incubated in 100 ul FACS buffer containing 0.5 μg/ml PE-conjugated secondary antibody for 30 minutes on ice. Cells were washed twice in cold FACS buffer and acquired on a BD FACS Canto. Data analysis and calculation of mean fluorescence intensity (MFI) values or 00 positive cells was performed with FlowJo (TreeStar) software version 10.0.7.
(§2) Given the high sequence similarity between receptors of the SIRPβ family, anti-SIRPβ1 antibodies were also screened for cross-reactivity to human SIRPα.

The target in assay [5] is T1, human SIRPα on cells. Description: flow cytometry. The source holds these as a separate data set.
Description: as §1, §2
Assay [6] deals with T2, mouse SIRPβ1 on CHO cells. The experiment in a line: flow cytometry.
Description: as §1, §2
For assay [7], the target named is T4, human SIRPβ1 isoform 1 on cells. Description: cell binding titration; target not given.
Assay [8] addresses T5, human SIRPβ1 domain 1 (D1) Fc fusion (human, UniProt O00241 30-148).
T5 construct: Made in HEK293/T cells with a heterologous signal peptide; also called Human SIRPβ1 D1-Fc; Human SIRPβ1-Fc; not shown: C-terminal human IgG1 Fc
The experiment in a line: Octet, Fab monovalent.

Assay [9] deals with T5, human SIRPβ1 domain 1 (D1) Fc fusion. Description: Octet, Fab monovalent. The source holds these as a separate data set.
Description: Briefly, Octet affinity measurements were performed by loading IgGs on-line onto AHQ sensors. Sensors were equilibrated off-line in assay buffer for 30 min and then monitored on-line for 60 seconds for baseline establishment. For avid binding measurement, sensors with loaded IgGs were exposed to 100 nM antigen (human SIRPα domain 1 (D1) Fc fusion or SIRPβ1 domain 1 (D1) Fc fusion) for 3 min, and then transferred to assay buffer for 3 min for off-rate measurement. Additional avid binding was determined by loading biotinylated SIRPβ1 monomer on SA sensors and exposing to 100 nM IgG in solution. Monovalent binding measurements were obtained by loading human SIRPα- or SIRPβ1-Fc fusion antigens onto AHQ sensor, followed by exposure to 100 nM anti-SIRPβ1 antibody Fab. Additional monovalent measurements were made by loading biotinylated human SIRPα or SIRPβ1 monomer to SA sensor followed by exposure to 100 nM Fab in solution. Kinetics data were fit using a 1:1 binding model in the data analysis software provided by ForteBio (ForteBio Data Analysis Software 7.0).
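For FOB in this document: antibody binding to cells detected with a PE-labelled secondary antibody, given as mean fluorescence intensity relative to background.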

T4 sequence (O00241 30-398): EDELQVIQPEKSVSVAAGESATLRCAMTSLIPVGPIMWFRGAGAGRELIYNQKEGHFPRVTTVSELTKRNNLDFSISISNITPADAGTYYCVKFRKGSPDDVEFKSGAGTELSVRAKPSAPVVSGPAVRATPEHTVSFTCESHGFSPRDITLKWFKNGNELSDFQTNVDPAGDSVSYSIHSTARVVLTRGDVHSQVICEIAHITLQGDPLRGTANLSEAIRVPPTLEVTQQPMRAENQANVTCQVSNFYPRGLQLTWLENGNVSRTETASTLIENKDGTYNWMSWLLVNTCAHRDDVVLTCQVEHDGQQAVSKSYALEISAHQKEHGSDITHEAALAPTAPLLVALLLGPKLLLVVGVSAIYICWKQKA
T5 sequence (O00241 30-148 limits assumed): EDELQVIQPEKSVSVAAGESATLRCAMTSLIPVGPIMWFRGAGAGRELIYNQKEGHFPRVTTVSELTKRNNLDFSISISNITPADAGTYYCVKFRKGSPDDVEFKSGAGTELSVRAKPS

B1: SB-1-4 (antibody, V domains shown)
VH: QVQLVESGGGVVQPGGSLRLSCAASGFTFSAYGMNWVRQAPGKGLEWVSAIRASGGATYYADSVKGRFTISRDNSKNTLYLQMNSLRAEDTAVYYCAKDFTEVVGWLGMDVWGQGTTVTVSS
VL: EIVMTQSPGTLSLSPGERATLSCRASQSVSSSYLAWYQQKPGQAPRLLIYGASSRATGIPDRFSGSGSGTDFTLTISRLEPEDFAVYYCQLLGSSPRTFGGGTKVEIK
notes: IgG
Broadly, the EC50 is the concentration needed to bring the measured effect to its halfway point. High values mean lower potency in that assay, low ones higher potency in that assay. On to B1, for which the results for the binding result (with human SIRPα on cells [1]; in assay [2]; in [3]) were “no binding (tested: 1 ug/ml)”, “no binding (tested: 1 ug/ml)” and “no binding (tested: 100 nM)”, respectively. Moreover, the values for the FOB (in [4]; with human SIRPα on cells [5]; in assay [6]) were 3 fold over background, 1 fold over background and 1 fold over background, respectively. For the same molecule, the EC50 in [7] was found to be 0.073 nM.

B2: SB-2-7 Fab (Fab, V domains shown)
VH: EVQLLESGGGLVQPGGSLRLSCAASGFTFARYGMHWVRQAPGKGLEWVSAISGLAGPTYADSVKGRFTISRDNSKNTLYLQMNSLRAEDTAVYYCARDQTAAAAIWGMDVWGQGTTVTVSS
VL: B1 VL with I2V, M4L, L91Q, L92S, G93S, S95H, R97F
notes: Fab by papain digestion
What is called Kd is the constant that tells how readily two partners part at equilibrium. B2 returned a Kd in assay [8] of 6.21 nM.

B3: SB-1-5 (antibody, V domains shown)
VH: B1 VH with G16R, R52S, G56R, A57S, Y59F
VL: B1 VL
notes: IgG
On to B3, for which the binding result is “no binding (tested: 1 ug/ml)” with human SIRPα on cells [1], “no binding (tested: 1 ug/ml)” in assay [2] and “no binding (tested: 100 nM)” in [3]. Also, the FOB was 3 fold over background in [4], 1 fold over background with human SIRPα on cells [5] and 2 fold over background in [6]. Further, a half-maximal response in assay [7] (EC50) required 0.038 nM.

B4: SB-2-10 Fab (Fab, V domains shown)
VH: B2 VH with A30G, R31S, P57Q
VL: B1 VL with M4L, L91Q, L92S, G93S, S95H, R97F
notes: Fab by papain digestion
In the case of B4, the Kd in assay [8] was 12.3 nM.

B5: SB-2-11 Fab (Fab, V domains shown)
VH: B2 VH with E1Q, L5V, A103W, A104G
VL: B1 VL with M4L, L91Q, L92S, G93S, S95H, R97F
notes: Fab by papain digestion
Regarding B5, the affinity in assay [8], expressed as Kd, was 4.4 nM.

B6: SB-6 Fab (Fab, V domains shown)
VH: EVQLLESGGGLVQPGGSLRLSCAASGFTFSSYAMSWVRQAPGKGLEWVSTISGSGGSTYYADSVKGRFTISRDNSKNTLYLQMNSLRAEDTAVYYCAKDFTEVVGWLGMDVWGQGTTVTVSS
VL: B1 VL with M4L, L91Q, L92S, S94H, S95L, R97I
notes: Fab by papain digestion
Consider B6, for which, in [9], the Kd came out at 131 nM.

B7: SB-2-8 Fab (Fab, V domains shown)
VH: B2 VH with E1Q, L5V, L11V, G16R, A30L, R31D, G53A, L54F, P57S
VL: B1 VL with I2V, M4L, L91Q, L92S, G93S, S95H, R97F
notes: Fab by papain digestion
For the molecule B7, the Kd in [8] was found to be 5.02 nM.

B8: SB-1-4 Fab (Fab, V domains shown)
VH: B1 VH
VL: B1 VL
notes: Fab by papain digestion
Consider B8, for which, in assay [8], the Kd is 43.3 nM.

B9: SB-2-11 (antibody, V domains shown)
VH: B2 VH with E1Q, L5V, A103W, A104G
VL: B1 VL with M4L, L91Q, L92S, G93S, S95H, R97F
notes: IgG
In the case of B9, the binding result with human SIRPα on cells [1] was “no binding (tested: 1 ug/ml)”; in assay [2], “no binding (tested: 1 ug/ml)”; in assay [3], “no binding (tested: 100 nM)”. Further, the FOB is 6 fold over background in assay [4], 0 fold over background with human SIRPα on cells [5] and 2 fold over background in assay [6]. In assay [7], the midpoint of the response, the EC50, lay at 0.22 nM.

B10: SB-2-9 Fab (Fab, V domains shown)
VH: QVQLVESGGGVVQPGRSLRLSCAASGFTFKTYGMHWVRQAPGKGLEWVAHIWYEGSNKVYADSVKGRFTISRDNSKNTLYLQMNSLRAEDTAVYYCARDQTAAAAIWGMDVWGQGTTVTVSS
VL: B1 VL with I2V, M4L, L91Q, L92S, G93S, S95H, R97F
notes: Fab by papain digestion
In turn, B10 registered a Kd in [8] of 19.2 nM.

B11: SB-1-5 Fab (Fab, V domains shown)
VH: B1 VH with G16R, R52S, G56R, A57S, Y59F
VL: B1 VL
notes: Fab by papain digestion
Turning to B11, the Kd in [8] was determined as 82.4 nM.

B12: SB-2-10 (antibody, V domains shown)
VH: B2 VH with A30G, R31S, P57Q
VL: B1 VL with M4L, L91Q, L92S, G93S, S95H, R97F
notes: IgG
B12: the binding result is given as “no binding (tested: 1 ug/ml)” with human SIRPα on cells [1], “no binding (tested: 1 ug/ml)” in assay [2] and “no binding (tested: 100 nM)” in assay [3]. The figures for the FOB (in [4]; with human SIRPα on cells [5]; in assay [6]) were 4 fold over background, 1 fold over background and 2 fold over background, respectively. Moreover, in [7], a half-maximal effect (EC50) was put at 0.234 nM.

B13: SB-8-16 (antibody, V domains shown)
VH: QVQLQESGPGLVKPSETLSLTCAVSGYSISAHYYWGWIRQPPGKGLEWIGSIFHSGHTYYNPSLKSRVTISVDTSKNQFSLKLSSVTAADTAVYYCARAGAMTPAGMDVWGQGTTVTVSS
VL: B1 VL with S54N, L91Q, L92V, G93Y, R97Y
notes: IgG
B13: the binding result is given as “no binding (tested: 1 ug/ml)” with human SIRPα on cells [1], “no binding (tested: 1 ug/ml)” in assay [2] and “no binding (tested: 100 nM)” in assay [3]. Moreover, the figures for the FOB (in [4]; with human SIRPα on cells [5]; in assay [6]) were 9 fold over background, 1 fold over background and 2 fold over background, respectively. A half-maximal effect in assay [7] (EC50) was put at 0.147 nM.

B14: SB-8-14 (antibody, V domains shown)
VH: B13 VH with A31P, F53Y, A99G
VL: B1 VL with S54N, L91Q, L92V, G93Y, R97Y
notes: IgG
For B14, the binding result in assay [2] is listed as “no binding (tested: 1 ug/ml)”. For the same molecule, the Kd in [3] was determined as 18.3 nM. Further, the FOB in assay [4] amounted to 7 fold over background; in assay [6] it was 1 fold over background. For the same molecule, the EC50 in [7] was 0.304 nM.

B15: SB-2-9 (antibody, V domains shown)
VH: B10 VH
VL: B1 VL with I2V, M4L, L91Q, L92S, G93S, S95H, R97F
notes: IgG
As to B15, the values for the binding result (with human SIRPα on cells [1]; in [2]; in assay [3]) were “no binding (tested: 1 ug/ml)”, “no binding (tested: 1 ug/ml)” and “no binding (tested: 100 nM)”, respectively. In addition, the FOB worked out at 4 fold over background in assay [4], 1 fold over background in the assay with human SIRPα on cells [5] and 2 fold over background in assay [6]. This molecule also returned an EC50 in assay [7] of 0.469 nM.

B16: SB-49 Fab (Fab, V domains shown)
VH: QLQLQESGPGLVKPSETLSLTCTVSGGSISSSDYYWGWIRQPPGKGLEWIGSIYYSGSTYYNPSLKSRVTISVDTSKNQFSLKLSSVTAADTAVYYCARGPTGYKDKWRYYYGMDVWGQGTTVTVSS
VL: DIQMTQSPSSLSASVGDRVTITCQASQDITNYLNWYQQKPGKAPKLLIYDASNLETGVPSRFSGSGSGTDFTFTISSLQPEDIATYYCQQYFHPPLTFGGGTKVEIK
notes: Fab by papain digestion
In assay [9], B16 showed a Kd of 156 nM. This lies in the sub-micromolar range.

B17: SB-40-19 (antibody, V domains shown)
VH: QVQLVQSGAEVKKPGASVKVSCKASGYTFTSYYMVWVRQAPGQGLEWMGIINPSSGATNYAQKFQGRVTMTTDTSTSTAYMELRSLRSDDTAVYYCARDTGEYSYSPHGMDVWGQGTTVTVSS
VL: EIVLTQSPATLSLSPGERATLSCRASQSVSSYLAWYQQKPGQAPRLLIYDSSNRATGIPARFSGSGSGTDFTLTISSLEPEDFAVYYCQQRDEHPPWTFGGGTKVEIK
notes: IgG
As for B17, the binding result with human SIRPα on cells [1] is “no binding (tested: 1 ug/ml)”; in [2], “no binding (tested: 1 ug/ml)”; in [3] it was “no binding (tested: 100 nM)”. Also, the FOB is 3 fold over background in [4], 1 fold over background with human SIRPα on cells [5] and 2 fold over background in assay [6]. In assay [7], this molecule had an EC50 of 0.713 nM.

B18: SB-40-18 (antibody, V domains shown)
VH: QVQLVQSGAEVKKPGASVKVSCKASGYTFTSYYMAWVRQAPGQRLEWMGWINPAVGATIYSQKFQGRVTITRDTSASTAYMELSSLRSEDTAVYYCARDTGEYSYSPHGMDVWGQGTTVTVSS
VL: B17 VL
notes: IgG
Turning to B18, the binding result is “no binding (tested: 1 ug/ml)” with human SIRPα on cells [1], “no binding (tested: 1 ug/ml)” in assay [2] and “no binding (tested: 100 nM)” in [3]. The FOB in assay [4] was 4 fold over background; in the assay with human SIRPα on cells [5] it was 1 fold over background; in assay [6] it was 2 fold over background. Also, a half-maximal response in assay [7] (EC50) required 0.32 nM.
